{"source": "patent US20180209983A1", "about": "(SUBDOMAIN, published 2018)", "data": [{"biological_target": "T1, purified recombinant PD-L1-Fc protein (UniProt Q9NZQ7 19-238)", "T1 construct": "also called B7-H1; not shown: Fc portion", "T1 sequence (Q9NZQ7 19-238 limits assumed)": "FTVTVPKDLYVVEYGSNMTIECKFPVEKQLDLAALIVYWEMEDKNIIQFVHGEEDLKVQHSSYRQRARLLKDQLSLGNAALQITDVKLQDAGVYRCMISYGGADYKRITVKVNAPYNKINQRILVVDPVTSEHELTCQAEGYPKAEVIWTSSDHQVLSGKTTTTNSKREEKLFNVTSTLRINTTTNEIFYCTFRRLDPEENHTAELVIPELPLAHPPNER", "assay": "phage ELISA; signal on target-Fc over non-specific control (e.g. IgG1-Fc)", "experimental": "(§1) Selections were also performed using F1, F2, F3, C1 & C2 trinucleotide phosphoramidite libraries. In most cases, libraries were pooled prior to use in selection. By combining equal volumes of the individual libraries, Pool F (libraries F1, F2 and F3) and Pool C (libraries C1 and C2) were generated. These libraries were used in selections for DBDpp binders to 4-1BB/CD137 as well as a larger panel of purified recombinant “target”-Fc proteins, including CD47, CTLA4, DR5, KIR, LAG3, OX40, PD1, PD-L1 and TIM3. (Many of these targets are considered immuno-regulatory factors (Pardoll et al., Nat. Rev. Cancer 12:252-264 (2012)). After incubation of the target with the pools of DBDpp phage libraries, bound phage-target complexes were captured and separated from unbound phage with protein A beads (target proteins were Fc fusions). After three rounds of selection, rescued phage clones were screened by ELISA for binding to the selected target.\n(§2) For each target, approximately 90 DBDpp phage clones were screened by ELISA for binding to the target protein and as well as a non-specific control (e.g., IgG1-Fc). […] In some instances, for the ELISA screening plate in which the majority of DBDpp clones were positive, the entire plate was sequenced.", "values": [{"binder": "DBDpp of SEQ ID NO: 60, phage-displayed (designed binder, F3 library; rescued M13 phage clone, DBDpp fused to pIII) MGSWYEFTVRLEAIHERLKALGGSEAELAAFEKEIAAFESELQAYKGKGNPEVEILRDDAAFIRRFLQAYRHN", "ELISA ratio": 17.3}, {"binder": "DBDpp of SEQ ID NO: 61, phage-displayed (designed binder, F3 library; rescued M13 phage clone, DBDpp fused to pIII) MGSWYEFDDRLNAIHDRLQALGGSEAELAAFEKEIAAFESELQAYKGKGNPEVEDLRDDAAFIRRFLQAYRHN", "ELISA ratio": 12.2}]}, {"biological_target": "T2, purified recombinant DR5-Fc protein (UniProt O14763-2 56-182, limits assumed)", "T2 construct": "also called TRAIL-R2; not shown: Fc portion", "T2 sequence (O14763 56-182 limits assumed)": "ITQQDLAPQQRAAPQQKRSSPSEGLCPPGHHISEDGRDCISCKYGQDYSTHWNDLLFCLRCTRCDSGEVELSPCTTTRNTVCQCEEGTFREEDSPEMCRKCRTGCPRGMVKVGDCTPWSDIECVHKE", "assay": "phage ELISA; signal on target-Fc over non-specific control (e.g. IgG1-Fc); average where several clones", "experimental": "as §1, §2", "values": [{"binder": "DBDpp of SEQ ID NO: 30, phage-displayed (designed binder, F1 library; rescued M13 phage clone, DBDpp fused to pIII) MGSWHYFKDHLAEIKGLLEALGGSEAELAHFEMAIADFEHNLQYYKGKGNPEVEALRKEAAAIRDELQAYRHN", "ELISA ratio": 11.4}, {"binder": "DBDpp of SEQ ID NO: 33, phage-displayed (designed binder, F1 library; rescued M13 phage clone, DBDpp fused to pIII) MGSWTYFKEHLAEIKYMLEALGGSEAELAHFEVAIADFEKMLQYYKGKGNPEVEALRKEAAAIRDELQAYRHN", "ELISA ratio": 10.3}, {"binder": "DBDpp of SEQ ID NO: 34, phage-displayed (designed binder, F1 library; rescued M13 phage clone, DBDpp fused to pIII) MGSWWLFKDHLAEIKTALEALGGSEAELAHFEMAIAAFEKQLQYYKGKGNPEVEALRKEAAAIRDELQAYRHN", "ELISA ratio": 9.75}, {"binder": "DBDpp of SEQ ID NO: 31, phage-displayed (designed binder, F1 library; rescued M13 phage clone, DBDpp fused to pIII) MGSWHYFKGHLAEIKNHLEALGGSEAELAHFERAIAAFERSLQWYKGKGNPEVEALRKEAAAIRDELQAYRHN", "ELISA ratio": 10.8}, {"binder": "DBDpp of SEQ ID NO: 32, phage-displayed (designed binder, F1 library; rescued M13 phage clone, DBDpp fused to pIII) MGSWIYFKEHLAYIKKELEALGGSEAELAHFESAIAVFESTLQYYKGKGNPEVEALRKEAAAIRDELQAYRHN", "ELISA ratio": 10.7}, {"binder": "DBDpp of SEQ ID NO: 28, phage-displayed (designed binder, F1 library) MGSWVYFKEHLAWIKTELEALGGSEAELAHFEHSIADFEMSLQFYKGKGNPEVEALRKEAAAIRDELQAYRHN", "ELISA ratio": 12.1}, {"binder": "DBDpp of SEQ ID NO: 29, phage-displayed (designed binder, F1 library; rescued M13 phage clone, DBDpp fused to pIII) MGSWFYFKQHLAWIKSYLEALGGSEAELAHFERAIAAFEQHLQMYKGKGNPEVEALRKEAAAIRDELQAYRHN", "ELISA ratio": 11.8}]}, {"biological_target": "T3, purified recombinant TIM3-Fc protein (UniProt Q8TDQ0 22-202, limits assumed)", "T3 construct": "not shown: Fc portion", "assay": "phage ELISA; signal on target-Fc over non-specific control (e.g. IgG1-Fc); average where several clones", "experimental": "as §1, §2", "values": [{"binder": "DBDpp of SEQ ID NO: 45, phage-displayed (designed binder, F1 library) MGSWVVFKVDLATIKYILEALGGSEAELAEFEGEIAGFEYSLQFYKGKGNPEVEALRKEAAAIRDELQAYRHN", "ELISA ratio": 5.79}]}, {"biological_target": "T1, purified recombinant PD-L1-Fc protein", "assay": "phage ELISA; signal on target-Fc over non-specific control (e.g. IgG1-Fc); average where several clones", "experimental": "as §1, §2", "values": [{"binder": "DBDpp of SEQ ID NO: 40, phage-displayed (designed binder, F3 library; rescued M13 phage clone, DBDpp fused to pIII) MGSWYEFQNRLHAIHERLNALGGSEAELAAFEKEIAAFESELQAYKGKGNPEVELLRDDAAFIRHFLQAYRHN", "ELISA ratio": 6.34}, {"binder": "DBDpp of SEQ ID NO: 38, phage-displayed (designed binder, F3 library; rescued M13 phage clone, DBDpp fused to pIII) MGSWTEFQSRLDAIHSRLRALGGSEAELAAFEKEIAAFESELQAYKGKGNPEVELLRDDAAFIRHFLQAYRHN", "ELISA ratio": 8.68}, {"binder": "DBDpp of SEQ ID NO: 39, phage-displayed (designed binder, F3 library; rescued M13 phage clone, DBDpp fused to pIII) MGSWQEFDDRLNAIKARLQALGGSEAELAAFEKEIAAFESELQAYKGKGNPEVEDLRDDAAFIRRFLQAYRHN", "ELISA ratio": 7.41}, {"binder": "DBDpp of SEQ ID NO: 42, phage-displayed (designed binder, F3 library; rescued M13 phage clone, DBDpp fused to pIII) MGSWYEFESRLDAIHERLHALGGSEAELAAFEKEIAAFESELQAYKGKGNPEVENLRGDAAFIRHFLQAYRHN", "ELISA ratio": 4.88}, {"binder": "DBDpp of SEQ ID NO: 43, phage-displayed (designed binder, F3 library; rescued M13 phage clone, DBDpp fused to pIII) MGSWYEFNHRLDAISKRLNALGGSEAELAAFEKEIAAFESELQAYKGKGNPEVEELRGDAAFIRHFLQAYRHN", "ELISA ratio": 2.98}, {"binder": "DBDpp of SEQ ID NO: 41, phage-displayed (designed binder, F3 library; rescued M13 phage clone, DBDpp fused to pIII) MGSWFEFQDRLTAINERLSALGGSEAELAAFEKEIAAFESELQAYKGKGNPEVETLRSDAAFIRRFLQAYRHN", "ELISA ratio": 6.01}, {"binder": "DBDpp of SEQ ID NO: 44, phage-displayed (designed binder, F3 library; rescued M13 phage clone, DBDpp fused to pIII) MGSWFEFENRLHAIVHRLGALGGSEAELAAFEKEIAAFESELQAYKGKGNPEVETLRADAAFIRHYLQAYRHN", "ELISA ratio": 2.76}]}, {"biological_target": "T4, purified recombinant PD1-Fc protein (UniProt Q15116 25-167, limits assumed)", "T4 construct": "not shown: Fc portion", "T4 sequence (Q15116 25-167 limits assumed)": "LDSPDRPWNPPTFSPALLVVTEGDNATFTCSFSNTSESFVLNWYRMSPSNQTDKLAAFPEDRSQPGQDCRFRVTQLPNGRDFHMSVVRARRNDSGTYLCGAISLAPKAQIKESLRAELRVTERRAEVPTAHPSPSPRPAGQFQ", "assay": "phage ELISA; signal on target-Fc over non-specific control (e.g. IgG1-Fc); average where several clones", "experimental": "as §1, §2", "values": [{"binder": "DBDpp of SEQ ID NO: 46, phage-displayed (designed binder, F1 library; rescued M13 phage clone, DBDpp fused to pIII) MGSWTIFKEWLAFIKTDLEALGGSEAELAFFEGWIASFEMELQKYKGKGNPEVEALRKEAAAIRDELQAYRHN", "ELISA ratio": 17.1}, {"binder": "DBDpp of SEQ ID NO: 47, phage-displayed (designed binder, F1 library; rescued M13 phage clone, DBDpp fused to pIII) MGSWVMFKWLLADIKSHLEALGGSEAELAFFEGFIAAFETHLQVYKGKGNPEVEALRKEAAAIRDELQAYRHN", "ELISA ratio": 8.13}, {"binder": "DBDpp of SEQ ID NO: 48, phage-displayed (designed binder, F1 library; rescued M13 phage clone, DBDpp fused to pIII) MGSWYAFKDYLADIKGWLEALGGSEAELAFFEIFIARFELELQAYKGKGNPEVEALRKEAAAIRDELQAYRHN", "ELISA ratio": 3.29}]}, {"biological_target": "purified recombinant KIR-Fc protein", "assay": "phage ELISA; signal on target-Fc over non-specific control (e.g. IgG1-Fc)", "values": [{"binder": "DBDpp of SEQ ID NO: 37, phage-displayed (designed binder) MGSWLWFKIFLAEIKYFLEALGGSEAELAAFDFEIHAFHVELFAYKGKGNPEVEVLREVAAEIRWDLQAYRHN", "ELISA ratio": 4.17}]}, {"biological_target": "T5, recombinant, biotinylated, Human 4-1BB/TNFRSF9/CD137-Fc (human, UniProt Q07011 24-186, biotinylated (site not stated))", "T5 construct": "Selection and screening target of the phage ELISA; also called 4-1BB/CD137; not shown: Fc portion", "T5 sequence (Q07011 24-186 limits assumed)": "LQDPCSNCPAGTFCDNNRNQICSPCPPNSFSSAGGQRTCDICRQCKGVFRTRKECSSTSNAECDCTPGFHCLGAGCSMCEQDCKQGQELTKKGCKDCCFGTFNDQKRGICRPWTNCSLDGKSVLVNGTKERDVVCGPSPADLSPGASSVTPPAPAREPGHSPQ", "assay": "phage ELISA of rescued clones on human CD137-Fc", "source_text": "The F2NNK DBD library was used in five rounds of selection against recombinant, biotinylated, Human 4-1BB/TNFRSF9/CD137-Fc.", "units": {"fold of ELISA OD over control (IgG Fc)": "fold"}, "values": [{"binder": "bb10 (DBDpp clone from the F2NNK library), phage-displayed (designed binder, Tested as rescued M13 phage; In the F2NNK library the DBDpp carries an N-terminal FLAG tag and is fused at its C-terminus to M13 pIII (pComb phagemid); also called the 89 clones) MGSWAEFKQRLAAIKTRLEALGGSEAELAAFLGEIWAFEMELAAYKGKGNPEVEALGREAAAIRMELQAYRHN", "fold of ELISA OD over control (IgG Fc)": 5.3}]}, {"biological_target": "purified recombinant KIR-Fc protein", "assay": "phage ELISA; signal on target-Fc over non-specific control (e.g. IgG1-Fc); average where several clones", "values": [{"binder": "DBDpp of SEQ ID NO: 35, phage-displayed (designed binder) MGSWSEFYNRLDAIESRLLALGGSEAELALFEIQIARFEKVLQAYKGKGNPEVEALRGEARAIFAELYAYRHN", "ELISA ratio": 8.4}, {"binder": "DBDpp of SEQ ID NO: 36, phage-displayed (designed binder) MGSWYEFYNRLYAIEIRLYALGGSEAELAAFEKEIAAFESELQAYKGKGNPEVERLRVRAAKIRVILQAYRHN", "ELISA ratio": 4.24}]}]}
